Publication PMC4574524 (Journal of immunology (Baltimore, Md. : 1950), 2015)

Target: PFD1235w DBLβ3_D4, wild type (P. falciparum 3D7)
Assay: SPR

B1: ICAM-1_D1 (domain or fragment)
chain: QTSVSPSKVILPRGGSVLVTCSTSCDQPKLLGIETPLPKKELLLPGNNRKVYELSNVQEDSQPMCYSNCPDGQSTAKTFLTVYWT
B1 was tested, and the Kd was 2.34 nM and the koff was 0.00337 s⁻¹.
